Experimental data reported in IntAct's records for PubMed 19176810.

Each substance was assayed against fadd_human FADD (UniProt Q13158).
Chain of UniProt Q13158 (Q13158 whole entry): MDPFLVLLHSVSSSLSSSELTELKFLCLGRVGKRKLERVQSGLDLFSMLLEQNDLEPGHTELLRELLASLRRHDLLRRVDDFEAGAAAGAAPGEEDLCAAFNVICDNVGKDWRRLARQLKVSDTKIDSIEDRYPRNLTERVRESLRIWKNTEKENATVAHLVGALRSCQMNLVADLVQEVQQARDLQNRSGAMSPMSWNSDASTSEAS
“Leucine-rich repeat serine/threonine-protein kinase 2 (Homo sapiens), Q5S007 G2019S” was tested, and the “effect of a mutation on the interaction” value was “increasing interaction”.
For “Leucine-rich repeat serine/threonine-protein kinase 2 (Homo sapiens), Q5S007 I2020T”, the “effect of a mutation on the interaction” value was “increasing interaction”.
For “Leucine-rich repeat serine/threonine-protein kinase 2 (Homo sapiens), Q5S007 R1441C”, the “effect of a mutation on the interaction” value was “increasing interaction”.
In the case of “Leucine-rich repeat serine/threonine-protein kinase 2 (Homo sapiens), Q5S007 Y1699C”, the “effect of a mutation on the interaction” value is reported as “increasing interaction”.
